# From the domain aggregation screens of Martell et al. (2025)
# Assay: soluble fraction after stress (log2 fold change); higher = more stays soluble; pooled small domains, quantitative proteomics
# Conditions: stress: pH 4
# In short: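 Custom libraries of small protein domains were pooled and exposed to pH 4. High-throughput quantitative proteomics then measured the log2 fold change in the amount of each domain still soluble, with higher values meaning more stayed soluble. This soluble-fraction fold change stands for aggregation propensity.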
sequence,measurement,value
HMARTIINLPLRNSVDESYNTTVNILQANGFKEVSYNGETVWKKGTGLLTAMQYIKIEFTDTTLVVSGWVQ,soluble fraction (log2),-0.11
HMARTLSVTVSENYANMRLDSFLFESGLYPSRSKAVKQIESGKVFVNGNEPTKKTIVVANDFIVYEEYAEE,soluble fraction (log2),-1.15
HMARTTIATPWDKINDLLQGGLGNGDFGLIFGNPGGGKSWSLVALGGFAVKLGYNVIHYTLE,soluble fraction (log2),-1.35
HMASAEDDLTRRARKLLTTSSMLKTLQPDTGERLQWLPQVVRLLAEGVEAPRIVVLIRRAMESG,soluble fraction (log2),-0.00608
HMASALDFGRYVRSQYSLQEFPLILIAPLNDPHPKEVVRELFNLYLTKPITRSRLFDSLMTVLG,soluble fraction (log2),-0.499
HMASDQGAGALREVSAFFEKHGRVPDPDAVDHDEMRLGSIWASIKSAPTDQMRLEDRFGLLD,soluble fraction (log2),-0.613
HMASDYYTTTANLNLRSGAGTTYGSLIIIEKGDTVKLLENVNDHWVKIQYDDKIGYVAMSYLLPIE,soluble fraction (log2),-0.113
HMASEKSEQLYQQMKLDIAGMPPDTRLPSIRALMRSYSVSQLLIDRTLGRLREEGALRKRFDGLYTYL,soluble fraction (log2),-0.0945
HMASELQQVQALLESQRYNEALILIETTIGKGASESTELLFARADVFASSGRHDEAEQAYREL,soluble fraction (log2),-0.45
HMASELVSADEKYSGLVSYLLGRVVVVDQIDHAIALAKKYRYSLRIVTLDGELLSPGGSMTGGAFKNS,soluble fraction (log2),0.2
HMASEVEVPNVYGMPSSLAERELSAVGLLADYRSRTGTGQQPGTVVHVKPDAGTVVSRGSTVVLFIA,soluble fraction (log2),0.138
HMASFASRAEEVMTKLLANGQPRIKEVADAMHLSSRTLQRRLEREGVSFAELLDRLRKRLAHDMLAHS,soluble fraction (log2),≥ 0.43
HMASFGDLSGLKRTYPPQGLPDASRIADFLIARNEGDLSVEQVKALERFLFEHPDHERTARLVAATRVPA,soluble fraction (log2),-0.115
HMASFTDAQALEVKDLYPDWSKIPEGTHLEAGQRVRYNGNLYKVRTGQAHDKQSTWTPTDAASLFEAID,soluble fraction (log2),0.0558
HMASIEPLKTSIRIIWYINGEKDSETLLNTPPTAANKANAQKIADMVEQQIQMGIFNRDAVFPSSPKRQ,soluble fraction (log2),-0.559
HMASIGVGTIVRVANAVNYNGVKVKAWFNDEGYEVTELSGDRAVLKHNGDLFDAFHVSDLEA,soluble fraction (log2),-0.771
HMASINRIENKNGKVVYRIIVSLGYDKQGKKLKKTITYNVNQTATKKQQENEALKYALDIEDKIKNGHD,soluble fraction (log2),-0.138
HMASITLDQAKEIALTHAGQTADAVWFEKAEQDYDDGILVYELEFAAKGTEYEYEIDAQTGAIREYKWDD,soluble fraction (log2),0.0206
HMASLSEREHDVAVLILQGKTYAEIGQAIFISPRTVEHHVASIRRRLEAKSRSDLIAKLRLTIGGTED,soluble fraction (log2),-1.15
HMASPTKQLVLEALRASGQPMSSMELSAQIGVSRATAQRYLSTLASAGEVKIQLRYGTTGRPEQEFLAIE,soluble fraction (log2),0.22
HMASQFSLIVTQADAGMRLDSLLAVSGAYPSRSAAVKQIEAGKVLVNGLARSKRSIVAPGDTIVYEEIP,soluble fraction (log2),-0.0502
HMASQVERGAVVVTDQRIFFIGVSSEGIEVHGTKIFGMSEKAPLYSHMKGLKKGDSFQFNGLKYVIQDIY,soluble fraction (log2),-0.916
HMASRKTERINRLIDVLQHATSRVPASVLSKILGIGERSVRNYVSEVNEQGQFRIDSSSGGYRLVA,soluble fraction (log2),-0.0154
HMASRTLSYSEFMSRVDSGDVTSVTLDGERIIMRTSNNQEFLSIKPEGEDISERLLAKNIEVRAEAQQ,soluble fraction (log2),-1.58
HMASVGTHIKRLRAAKRMTQEELAEQLHVTRQAVSAWETGKALPDVEMLERIAAALDADVTEVIYGA,soluble fraction (log2),-0.24
HMATAATGIINNNYVNVRSGPATTYNIVGRLDQGSSIEILGSKNDWYQIKTKQLNGWVKNDFINLQK,soluble fraction (log2),0.14
HMATETELNLQLMRIIDELHTDHNTWGSRKITDYLRLQGYEINRKRIQRLMDVMDIQVVYPK,soluble fraction (log2),-0.00483
HMATEVEVPDVVGRQMALATQLLEARKLRVNVAEIYDEKTPPGQVVSQSPEAGSSVKEERVVTIYVSR,soluble fraction (log2),0.158
HMATGGKIYIGMNDNGKVVGVSDADKLLEDIPNKVRDVLGIIVDVNLLEENGLKYIEIDVPPYSN,soluble fraction (log2),-0.477
HMATGIKAVDNVFGWMNLEQVAKTVGLDIPSVLRASGLPEDTPVDISIKKIPGVDDEELKDSLRQYIEKS,soluble fraction (log2),-0.237
HMATGTVKWFNPNKGFGFIQQDDASKDVFVHSNELNGVYINEGDKVEFDVVETEKGLSAQNIKK,soluble fraction (log2),0.0939
HMATHGRRAVIELREKIVSGELPGGTRLFEVSLAETLDISRTPVREALSRLAEEGLLDRLPNGGFVVRR,soluble fraction (log2),-1.39
HMATIGVGSKVTLTTYVDWVGNGLLKTRDFYFVSELNGKRAVLRADSMNGAIYAAVNIDNLRI,soluble fraction (log2),-0.103
HMATINGIEKYLSSGLIPGIGPHTAKKLVEKFGLDTLDIMQYNPDRLTEVEGIGDKKAAKISEAFQEQK,soluble fraction (log2),-0.191
HMATKVNSGVTVRDLAELLGLSSADLIKKLMTMGEMATLTQTLTDDSVKAIADEYDRKIEIVSAAQ,soluble fraction (log2),-0.771
HMATLTPLGRLQLARYHAQERATLAATAERFQVSTTTVRRWVGRYHQVVAAGGRPTTADMQDRPSRP,soluble fraction (log2),-0.00504
HMATMSIDERILEIRSRAGLTQQEMADRLFVTRQAVSRWERGETVPGIDTLRLIAEAFDVRVDQILEL,soluble fraction (log2),-1.11
HMATQMSSARRGIATDEMKQVAKDEDVTLDWLLPKIAIGSIIIPSNNVRPQKIHNVGIGKGMKTKVN,soluble fraction (log2),-0.246
HMATTTEPTSPPAATASLEAKINWLFLIFRNKKTVTASEQKFHAEDASTVVGKETLTDDGTTMTKGETAAG,soluble fraction (log2),-0.437
HMATVELELKPEELRAGMILTKDLISGTGMMLLNKGVTLDNVKVEAIQRYYQLDPPLHGVFALVHGK,soluble fraction (log2),-0.896
HMATVGENIRRYRKAQNLSAAKLAEKVGLTQGAILHYERGIRTPGISQLEKIAHALNVSPRM,soluble fraction (log2),0.114
HMATVPNVVGLSEEKAKSRLANNGLNVSVTTEEVSDKSKDGIVSSQTSEGDTVKQGATITITVGKYVEK,soluble fraction (log2),-0.0691
HMATYDIDALKVDLPSAKELAQFVYDKTDGLVSLDLIGKPKEEQYIVAKNALEGKKVPAEYLTGFNPY,soluble fraction (log2),-0.273
HMATYTPYDKQGAKLWRVTAYLGMDSVTGKQRNMKKGGFKTKKEAQLYYNQVKLDFENGTLDQ,soluble fraction (log2),0.22
HMAVEQLKSQIGGFLKANREQSFSAQNMADGLRMNSAAGYQDVVNAMNALVRDGEAVEKDGQFSYNVN,soluble fraction (log2),-0.0292
HMAVETYRVKKSDTMQTIADRFGLSVEELLEYNQAYKTRELRARDILIIPSRKERKKLQQQKAQAAAQVVQ,soluble fraction (log2),0.404
HMAVGTASNLIGKDIEAYAPIDGSQSSDDTKTISGKVESVHIKDGVVYMNVKDSQSENIIEVEYGALIKVN,soluble fraction (log2),0.247
HMAVKPIDRLRSLMAESNVTDAELQKVVADKGHYAADAPIDSYSEKFISGWLIKYWSQILNLINADRTVL,soluble fraction (log2),-0.0558
HMAVKTEHGRIWKALPEGQDGYREDVPMFTSKSMYDGSAGIGIFLIRLYEATSDERWLKEAEEAAAHII,soluble fraction (log2),0.308
HMAVLEGPAGKLGIVRFEANRSFTGMGHERFSSADQAFGTKPAAVVASRLFATGQVAGVHVYGNIITVELA,soluble fraction (log2),≥ 0.43
HMAVNDPDEKFIELGIPADWVQVVRKAGFQTVEALKTVENPNKLHQELSGLNKKMKLGLKTLSQDEVKDWF,soluble fraction (log2),-0.0206
HMAVPMTPGELVGSRVRVLWWKDGRGEVVALARGHQATLPARSEEPLRTGADAVVLEADEGTLVVTS,soluble fraction (log2),-0.192
HMAVSGRMMVYEYIRQQMREGSLLPGSVLDLPAISHKLGISNTPLRDSLIRLEAEGYLTIYPRSKVVIN,soluble fraction (log2),-0.254
HMAVTGRVDLRIKPWGYVSVDGAAKVSSPPTMQLKLAPGRHEIEITNPAGAAVTKTVDVIAGKSVTVQHN,soluble fraction (log2),0.19
HMAVTKVKVITESSNLNIRKGPGTDQPIVGKAAHHEIITLVNKSNDQWWLVRTNDGEEGYSYSRYLEPVT,soluble fraction (log2),-0.153
HMAVVEVATTTATEYKVEKGHHFKVGDFVMFKTGAKSYAITAIDTTSPIFDKITVGTTLGEAIPVGGTLM,soluble fraction (log2),-1.45
HMAVVIPDVKGMTIEEAAPFLAEKGIRYNIIDSVFSKDVDPGAIVEIVPTPGSKVKEGRIVFVTINAK,soluble fraction (log2),-0.774
HMAVVQMVDRPGGLDELLKDVVRAGVNFANAYGRTASDGNSAFFVIDIQDIPGARQKLADVGLQILADEAV,soluble fraction (log2),-0.512
HMAWAVDVGVVGLFPGKAVLVIDGGAPRTVPVGANVGGVRLLAVDQGSATVEIGGKRQRLAIGQHAH,soluble fraction (log2),0.22
HMAWIGEHTVTSEDTLSHIALKFYGHATPPYYKLIYEANKAIIGDNMNIIVPGQVLRIPALPEEL,soluble fraction (log2),-0.592
HMAYLTVPAVIAKDTKKSIQLLESKGFEVVIQDSIYTDTLARGTVIKQLPDPNATVKINRTVYLTVNRYTP,soluble fraction (log2),-0.369
HMAYQQITIKANVVNVRQGPGLSYDVMSQANKGETMNVISQKNNWYQVRLSGDKIGWVASWLVDNT,soluble fraction (log2),≥ 0.43
HMAYWVVKNNQVSLQINRSNYQITSTARALSNGNLGDEIDVKVLQSGVIKKAVVIGKGQVELLR,soluble fraction (log2),0.163
HMDAHIGTLTPRERETLHHLAIGHSNKVIAKKLNLAESTVKAYVQSILRKLGLSSRVQAAVYAIQHDIR,soluble fraction (log2),-0.23
HMDAIDPKTVTSWADLWKPEYKSSLLLTDDAREVFQMALRKLGYSGNTTDPKEIEAAYNELKKLMPNVAAF,soluble fraction (log2),-0.474
HMDAIDQDGNHMTFKRWGEQLQEAFQALEAYDTDKAKTILNELIKFPIDSDLNNALKGILSNIDEMMA,soluble fraction (log2),-0.68
HMDAINITTYKGQITLTGTKTGTLVGIYNTAGMLVKSMMSKGEKLYFDNLPSGVYIIKVGEEEPRKVQVI,soluble fraction (log2),≥ 0.43
HMDAKIEYTMSDLIENRLINSDDASMRREKLSEILKIGYGNGKKTLHKLNSFGITREEFEEAMKEVNSH,soluble fraction (log2),-0.0624
